Laboratory results published in publication PMC7567103 (Nature Communications, 2020).
One block for each molecule: values may come before it. Where no end group is shown, it is not given here.

Key:
[1] = molecular target: GHRHR(23-423) (WT) (human) (UniProt Q02643)
[2] = molecular target: HA-Flag-GHRHR C195A (human) (UniProt Q02643)
[3] = molecular target: HA-Flag-GHRHR F187A (human) (UniProt Q02643)
[4] = molecular target: HA-Flag-GHRHR H210A (human) (UniProt Q02643)
[5] = molecular target: HA-Flag-GHRHR K182A (human) (UniProt Q02643)
[6] = molecular target: HA-Flag-GHRHR N346A (human) (UniProt Q02643)
[7] = molecular target: HA-Flag-GHRHR R357A (human) (UniProt Q02643)
[8] = molecular target: HA-Flag-GHRHR T213A (human) (UniProt Q02643)
[9] = molecular target: HA-Flag-GHRHR W282A (human) (UniProt Q02643)
GHRHR(23-423) (human) = GHRHR(23-423) (human) (UniProt Q02643)
GHRHR WT = test: cAMP accumulation, GHRH vs GHRH(D3A) (Supplementary Fig. 6c); type: cell-based, human; conditions: D3A in GHRH; WT receptor
Experimental: GHRH-stimulated cAMP accumulation was measured by a LANCE Ultra cAMP kit (PerkinElmer). Briefly, 24 h after transfection with GHRHR(23-423), GHRHR(23-405), GHRHR(23-405)-LgBiT-2MBP, or HA-Flag-GHRHR (WT and mutants), HEK 293 T cells (3000/well in 384-well white plates, PerkinElmer) were digested by 0.2% (w/v) EDTA and 5 μL stimulation buffer (HBSS supplemented with 5 mM HEPES, 0.5 mM IBMX, and 0.1% (w/v) BSA, pH 7.4). Different concentrations (5 μL) of GHRH were then added and the stimulation lasted for 30 min at RT. The reaction was stopped by adding 5 μL Eu-cAMP tracer and 5 μL ULight-anti-cAMP. After 1 h RT incubation, TR-FRET signals (excitation: 320 nm, emission: 615 and 665 nm) were measured by an EnVision (PerkinElmer).

HA-Flag-GHRHR K182A = molecular target: T1, HA-Flag-GHRHR K182A (human, UniProt Q02643 23-423, K182^2.67bA); test: cell-based or functional assay
T1 sequence (looked up): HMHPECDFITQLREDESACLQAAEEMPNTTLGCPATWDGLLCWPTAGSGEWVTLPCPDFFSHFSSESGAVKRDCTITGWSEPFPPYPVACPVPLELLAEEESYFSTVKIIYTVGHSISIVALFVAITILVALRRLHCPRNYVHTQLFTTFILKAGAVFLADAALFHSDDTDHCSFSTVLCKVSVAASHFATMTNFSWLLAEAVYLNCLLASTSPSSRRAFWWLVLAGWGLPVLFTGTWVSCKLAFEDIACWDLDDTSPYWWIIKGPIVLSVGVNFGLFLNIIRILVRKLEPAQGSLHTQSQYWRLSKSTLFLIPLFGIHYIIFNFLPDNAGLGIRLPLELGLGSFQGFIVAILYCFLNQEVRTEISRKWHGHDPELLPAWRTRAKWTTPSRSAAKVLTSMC

HA-Flag-GHRHR F187A = molecular target: T2, HA-Flag-GHRHR F187A (human, UniProt Q02643 23-423, F187^ECL1A); test: cell-based or functional assay
T2 sequence (looked up): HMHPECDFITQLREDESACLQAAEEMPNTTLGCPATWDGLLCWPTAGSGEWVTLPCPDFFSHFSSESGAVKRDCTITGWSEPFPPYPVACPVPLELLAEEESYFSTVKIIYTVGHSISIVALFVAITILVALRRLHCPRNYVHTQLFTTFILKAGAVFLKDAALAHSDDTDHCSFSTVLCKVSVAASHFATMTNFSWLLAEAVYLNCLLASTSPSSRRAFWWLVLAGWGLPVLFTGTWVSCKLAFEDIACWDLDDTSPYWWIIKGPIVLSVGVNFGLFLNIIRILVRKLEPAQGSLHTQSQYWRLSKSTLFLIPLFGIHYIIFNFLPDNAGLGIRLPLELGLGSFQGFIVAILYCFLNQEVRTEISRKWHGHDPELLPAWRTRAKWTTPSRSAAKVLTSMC

HA-Flag-GHRHR C195A = molecular target: T3, HA-Flag-GHRHR C195A (human, UniProt Q02643 23-423, C195^ECL1A); test: cell-based or functional assay
T3 sequence (looked up): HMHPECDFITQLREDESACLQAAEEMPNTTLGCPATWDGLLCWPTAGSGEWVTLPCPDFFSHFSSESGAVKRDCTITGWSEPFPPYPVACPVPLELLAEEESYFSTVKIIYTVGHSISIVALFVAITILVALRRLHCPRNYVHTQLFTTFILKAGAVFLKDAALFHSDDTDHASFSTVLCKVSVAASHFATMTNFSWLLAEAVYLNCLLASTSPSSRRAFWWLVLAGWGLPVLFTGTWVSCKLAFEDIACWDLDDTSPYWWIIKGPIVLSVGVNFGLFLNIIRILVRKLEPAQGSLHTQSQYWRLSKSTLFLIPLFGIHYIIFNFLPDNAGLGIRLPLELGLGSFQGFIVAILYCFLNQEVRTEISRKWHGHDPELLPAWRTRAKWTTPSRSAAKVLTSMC

HA-Flag-GHRHR R357C = molecular target: T4, HA-Flag-GHRHR R357C (human, UniProt Q02643 23-423, R357C); test: cell-based or functional assay
T4 sequence (looked up): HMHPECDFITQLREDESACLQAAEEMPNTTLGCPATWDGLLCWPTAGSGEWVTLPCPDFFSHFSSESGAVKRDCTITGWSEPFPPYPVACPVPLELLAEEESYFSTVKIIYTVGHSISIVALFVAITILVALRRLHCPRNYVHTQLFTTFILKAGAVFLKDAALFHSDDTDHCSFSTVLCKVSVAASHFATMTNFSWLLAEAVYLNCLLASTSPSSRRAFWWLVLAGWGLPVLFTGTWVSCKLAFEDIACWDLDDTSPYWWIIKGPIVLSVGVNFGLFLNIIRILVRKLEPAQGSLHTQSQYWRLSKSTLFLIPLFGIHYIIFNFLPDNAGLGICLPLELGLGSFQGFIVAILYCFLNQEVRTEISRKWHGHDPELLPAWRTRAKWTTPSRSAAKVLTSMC

Supplementary Table 4, Wild-type: pEC50 of GHRH-induced cAMP accumulation, HEK 293T cells [1]: 9.74 -log M
Supplementary Table 4, C195A: pEC50 of GHRH-induced cAMP accumulation, HEK 293T cells [2]: 7.67 -log M
Supplementary Table 4, F187A: pEC50 of GHRH-induced cAMP accumulation, HEK 293T cells [3]: 8.94 -log M
Supplementary Table 4, H210A: pEC50 of GHRH-induced cAMP accumulation, HEK 293T cells [4]: 9 -log M
Supplementary Table 4, K182A: pEC50 of GHRH-induced cAMP accumulation, HEK 293T cells [5]: 7.4 -log M
Supplementary Table 4, N346A: pEC50 of GHRH-induced cAMP accumulation, HEK 293T cells [6]: 8.85 -log M
Supplementary Table 4, R357A: pEC50 of GHRH-induced cAMP accumulation, HEK 293T cells [7]: 6.87 -log M
Supplementary Table 4, T213A: pEC50 of GHRH-induced cAMP accumulation, HEK 293T cells [8]: 9.35 -log M
Supplementary Table 4, W282A: pEC50 of GHRH-induced cAMP accumulation, HEK 293T cells [9]: 7.88 -log M
Molecule: growth hormone-releasing hormone (GHRH) (from UniProt P01286 32-75) (peptide)

cAMP accumulation in HEK 293 T cells: fold loss of potency (GHRHR(23-423) (human)): 4 fold
Molecule: GHRH D^3PA (peptide)

Molecule: GHRH(D3A): GHRH with Asp3 replaced by Ala (YAAAIFTNSYRKVLGQLSARKLLQDIMSRQQGESNQERGARARL; ends and bridges not checked; UniProt P01286 32-75, looked up, variant D3A)
diminished potency vs GHRH (GHRHR WT): ~ 4 fold

cAMP accumulation in HEK 293 T cells: fold loss of GHRH potency (HA-Flag-GHRHR K182A): ~200 fold
cAMP accumulation in HEK 293 T cells: fold loss of GHRH potency (HA-Flag-GHRHR F187A): ~5 fold
cAMP accumulation in HEK 293 T cells: fold loss of GHRH potency (HA-Flag-GHRHR C195A): ~100 fold
cAMP accumulation in HEK 293 T cells: fold loss of GHRH potency (HA-Flag-GHRHR R357C): 1000 fold
B1: Growth hormone-releasing hormone (GHRH) (peptide, UniProt P01286 32-75, looked up)
peptide: YADAIFTNSYRKVLGQLSARKLLQDIMSRQQGESNQERGARARL
